# Data as given in the DeepSol protein solubility set.
# Experiment: soluble on expression in E. coli; label from the status in PepcDB or PDB records
row,Sequence,soluble on expression in E. coli
1,MGSDKIHHHHHHMSTAVTFFGQHVLNRVSFLRCSKEFIKKSLNHDSTVFIPFIEGEALISPENGDLVQLSNSVKSYKNILSAIVPLYTTLLNTTRSRSDESGINVTFLGLLEGTDSAFNFEWSNISYKGTPYFGLDIRVTESTLFKKVDFEPIFSYPKVTRDHIFKQTNEDASLYSQGKMYLDWLAKYKFCPGCGSPLFPVEAGTKLQCSNENRNVYCNVRDARINNVCFPRTDPTVIIALTNSDYSKCCLARSKKRYGDFVLYSTIAGFMEPSETIEEACIREIWEETGISCKNIDIVRSQPWPYPCSLMIGCLGIVQFNSKNEVINLNHDDELLDAQWFDTTEIIQALDKYAGGYRVPFKNDINLPGSTTIAFQLINHVCENYKNLRKTSSSHL,not soluble
2,MKTVKHLLQEKGHTVVAIGPDDSVFNAMQKMAADNIGALLVMKDEKLVGILTERDFSRKSYLLDKPVKDTQVKEIMTRQVAYVDLNNTNEDCMALITEMRVRHLPVLDDGKVIGLLSIGDLVKDAISQHQFVINQLERYIYDTREI,soluble
3,MGSDKIHHHHHHNGNGDKSLENWIWDAACSIRGAQEAAKYKDFILPLIFTKRLCDVFDDELNRIAEKVGSRAKAFKLVAMDHNLVRFYLPLQPQNPDDPVWSVIRKLSDKIGEKLTDYLREIAKANPLLNGIINRVDFNATTHGQRDLDDDRLSNLIEKISEKRLGLKDVEPDIIGRSYEYLIRKFAEGSGQSAGEFYTPKEVGLIMAKIMQPEPGMTIYDPCCGSAGLLIKCQLVLQESQGATEKFAPLQLYGQEYTPNTWAMANMNMIIHDMEGKIEIGDTFRHPKFMQAGKLAQFERVVANPMWNQKWFTEKDYDGDELGRFPKGAGYPGSSADWGWVQHILASLDKTGKAAIVLDTGAASRGSGNANKNKEKEVRKWFVEQDLIEGVIYLPQNLFYNTSAPGILLFLNRAKPKERQGKLFFINASLVFAKGDPKNYIPDEEIERIANTFLTWREEEKFSLIVYKDKIAHNDYNISPSRYIHITEEEDFRPIAEILEELEVLEKEAAETNK,not soluble
4,MATSMTDIKGFNMISIEQEKELGNKFAVEIEKQQQPVNDPEVQRYVDKVGKRLLSGARAVEFDYVFKVVKDDSVNAFAIPGGRVYVHTGLLKAADNETELAGVLAHEINHAVARHGTRQMTQEYGYSLVLSLVLGDNPNMLAQLAGQLFGKAGMMSYSREYENQADFLGVETMYKAGYNPNGLTSFFQKLNAMDGGTQSNVARFFSTHPLTSERIQRVQAEIAKLPPQRYLTDETEFKKIKGRLKLEHHHHHH,soluble
5,SLTTTDADWKPVADALGRSGKLGDNNTAYRINLPRNDLHITSYGVDIKPGLSLGGYAAFARYDNNETLLMGDLVITEEELPKVTDALQAHGIAQTALHKHLLQQDPPVWWTHIHGMGDAARLAQGLKAALDATTIGPPTPPPARQPPVDIDVAGVDQALGRKGTQDGGLMKYSIPRKDTIIEDGHVLPAVSLNLTTVINFQPVGRGRAAINGDFILIAPEVQEVIRAMRAGNITIVELHNHGLTEEPRLFYMHYWAVDDAVTLARALRPAMDATNLQS,not soluble
6,MKISSIDSIFAAWDGSITEARRLQSDMAERIVLKDEPNLLSEPTLLAGFDVGFEDEGRTTRAAAVLMNAGDLRLLETHVVRVPTSMPYVPGLLSFRELPALLQALTQLSRIPALVFVDGHGIAHPRRLGIAAHFGLVTNLPCIGVAKKRLVGDFVEPGTAFGEHTPILLHGTQVGWALRSKMHCKPLIISPGHKVSLHSALTWTQRCLTGYRLPEPTRQADRLASRRGQKIVSDLPSLLLEHHHHHH,soluble
7,MSLSEKAKKPQKLKARLPRGFVDRSAADIHATNEMVDKIRRVYELYGFDPIETPLFEYTDALGKFLPDSDRPNEGVFSLQDDDDQWMSLRYDLTAPLARHVAENFNEIQLPYRTYRAGYVFRNEKPGPGRFRQFMQFDADTVGAAGVQADAEMCMMMADTMEALGIARGDYVIRVNNRKVLDGVMEAIGLGGEDNAGRRLNVLRAIDKLDKFGPEGVKLLLGPGRKDESGDFTKGAGLGDEQIEKVLFFVGIKDYAASADDLAKLVAGTSKGEEGVDELNTIGALVSGAGYDATRIKIDPSVVRGLEYYTGPVYEAELTFDVTNEKGEKVVFGSVGGGGRYDGLVSRFMGQPVPATGFSIGVSRLMTALKNLGKLGQVKPLAPVLITVMDGDVESMGRYQRFTQALRAEGIRAEMYQGNWKKFGNQLKYADRLGSPIAIIQGGDERAEGVVQIKDLIEGKRLSGEIEDNASWREARVAQVSEGHHHHHH,soluble
8,GPGSMPPKRPLYEVLGVSQDAAEEEISRVYRRMALQYHPDRNPNGEAKFKDIANAYSVLGDSEKRRVYDATGVIPGGAAETDNEATMAERSAEMKERVQVFYATYAGSPEETEDVISCYKKCKGNFRRMAREELLFDNKKQGEIQRLMELVRSLVESGRLNPTEAWKVTNTAAVLKQIERSLTRERKEAKDALDAMGLSAKEGEGGLHALQALMKRDQEAEWSKMMSNLESKYVKPKSATKGVEQNGKRNKRKAEATKTVSAPPQKKSRR,soluble
9,TKDFSWRTSLNFAYNKNKIVDLQYKENLTSRGLSLAGMSGDYSNLWIIGQPIDINYNLMTLGVWQLDEAEEAAKYGCKPGQYKPLDLNEDGVIDDKDRVIDGKRTPDWTGGMTNTFTYKEFDLSFQAAFQAGARARNQFYVSYALENNNLNFNNLRKDYWTPENPTNASAQPSNMGTYRSKAGSWGNAKSEMSHTMFSSNFLKISYITLGYTFKPSVLEKMKLGNLRLYATVQNPFIFCAKDVVDPEQLNVSINTSDAMTRNVIFGINLSFK,not soluble
10,MGSDKIHHHHHHMKLSRLKRKHKRVISVGKIAEQFWCEMKVELKLLYDIKPSNALVRKGKRIHDEISGKASLPRPKNFIDWLGGQIYFTNLSIESFLKSGLGREVFLVTKVDGDGWRWYLSGSIDEIRKKGGRTQVVERKTRLREEVPENESHKVQGLLYHLMLDEARRQKVSRNVKRAYGVVERAAISKEFSQAVGMTERNVKAMLRTLDSKLPMIPELDEEVVVIYESQKTGERIGEVRFKAQREEIERILQFSREYWAGEREALKTRENWKCRFCEVRKYCL,not soluble
11,MSWNCLLPIFVGFFVLFYEGQCQPARWTQQPGGQNPQPGASFPPNMNPVTNGPGSWTQKPGGYNNGPGSGSFKSTKPPRGLVYYQPKNYPYKPGKGGKYMHADPILPNANERLSAQSDQYTVSDGITGDWSKIVANSKGFYVLHPVQTKSEEDIFDPYTIGQVIGYLYEVQEFGGKKPPSGKYTIELMGKKIPDHLKKKRSLFGSPDRTRRATLVFKKKEQVKSTL,not soluble
12,RTLGEVWKERLNQMTKEEFTRYRKEAIIEVDRSAAKHARKEGNVTGGHPVSRGTAKLRWLVERRFLEPVGKVIDLGCGRGGWCYYMATQKRVQEVRGYTKGGPGHEEPQLVQSYGWNIVTMKSGVDVFYRPSECCDTLLCDIGESSSSAEVEEHRTIRVLEMVEDWLHRGPREFCVKVLCPYMPKVIEKMELLQRRYGGGLVRNPLSRNSTHEMYWVSRASGNVVHSVNMTSQVLLGRMEKRTWKGPQYEEDVNLGSGTRAV,soluble
13,MGSDKIHHHHHHMISRTMQQQVNSSSIIRAMFEEGKRLSALYGADNVYDFSLGNPNVEPPAEVKQAIMDILNEENSTTVHGYMNNSGFEDVRGAIAASLNQRFATGFAADNILMTVGAAGGLNVIFKTLLNPEDEVLTFAPFFGEYRNYVQNYQGQLIVVSPNTKDFQPNLEELKEKISPRTKAVLINSPNNPTGVVYSAETIAALVDILRAKQEEYGTVIYLIGDEPYRELAYDQVEVPYLTKYYENTIVGYSYSKSLSLPGERIGYLVIPREAADYENLIAAANIANRILGFVNAPSLFQRVIAKCLDAQVNLDSYNRNRELLYNALVSYGYQCIKPEGAFYLFIKTPLENDLEFCTLAKSKNILIVPGTSFACPGYARIAYCVAYETIERALPGFEALINEVSWASA,not soluble
14,MSDWSPMHEAAIHGHQLSLRNLISQGWAVNIITADHVSPLHEACLGGHLSCVKILLKHGAQVNGVTADWHTPLFNACVSGSWDCVNLLLQHGASVQPESDLASPIHEAARRGHVECVNSLIAYGGNIDHKISHLGTPLYLACENQQRACVKKLLESGADVNQGKGQDSPLHAVARTASEELACLLMDFGADTQAKNAEGKRPVELVPPESPLAQLFLEREGPPSLMQLCRLRIRKCFGIQQHHKITKLVLPEDLKQFLLHL,soluble
